PMC2173940

Legend:
[1] = biological target: soluble FcγRIIa (UniProt P12318); assay: SPR; BIAcore 2000; FcγRIIa, FcγRIIb or FcγRIIIa amine-coupled to CM5 (8000-10000 RU); IgG1-4, with or without EndoS treatment, injected, typically 10-1.25 µg/ml, 35 µl/min, 25°C; 10 mM HEPES pH 7.5, 150 mM NaCl, 0.005% P20, 3.4 mM EDTA; 1:1 Langmuir fit; empty flow cell as reference
[2] = biological target: soluble FcγRIIb (UniProt P31994); assay: as above
[3] = biological target: human IgG3 (human); assay: SPR; BIAcore 2000; IgG1-4 or deglycosylated IgG1-4 amine-coupled to CM5 (8000-10000 RU); EndoS or EndoS(E235Q) injected, typically 10-1.25 µg/ml, 35 µl/min, 25°C; 10 mM HEPES pH 7.5, 150 mM NaCl, 0.005% P20, 3.4 mM EDTA; 1:1 Langmuir fit; deglycosylated IgG flow cells as reference
[4] = biological target: human IgG4 (human); assay: as above
[5] = biological target: human IgG2 (human); assay: as above
[6] = biological target: human IgG1 (human); assay: as above

Sequence of UniProt P31994 (P31994 43-217): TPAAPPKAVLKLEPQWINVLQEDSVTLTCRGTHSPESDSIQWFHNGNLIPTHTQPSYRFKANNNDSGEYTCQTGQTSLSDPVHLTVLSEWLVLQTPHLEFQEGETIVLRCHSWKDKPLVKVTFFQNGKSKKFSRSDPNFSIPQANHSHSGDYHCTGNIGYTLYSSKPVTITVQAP
Sequence of UniProt P12318 (P12318 34-217): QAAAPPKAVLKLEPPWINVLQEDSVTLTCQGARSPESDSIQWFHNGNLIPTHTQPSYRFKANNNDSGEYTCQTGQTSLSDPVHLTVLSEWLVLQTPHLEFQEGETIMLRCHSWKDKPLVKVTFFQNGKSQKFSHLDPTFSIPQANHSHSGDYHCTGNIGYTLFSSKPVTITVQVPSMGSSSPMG

Molecule human IgG1 (antibody) has a Kd [1] of 97 nM.

Work on human IgG4 (antibody) yielded a Kd [2] of 200 nM, a koff [2] of 0.0069 s⁻¹ and a kon [2] of 34000 M⁻¹ s⁻¹.

B1: EndoS(E235Q), inactive form of EndoS (enzyme)
chain: EEKTVQVQKGLPSIDSLHYLSENSKKEFKEELSKAGQESQKVKEILAKAQQADKQAQELAKMKIPEKIPMKPLHGSLYGGYFRTWHDKTSDPTEKDKVNSMGELPKEVDLAFIFHDWTKDYSLFWKELATKHVPKLNKQGTRVIRTIPWRFLAGGDNSGIAEDTSKYPNTPEGNKALAKAIVDEYVYKYNLDGLDVDVQHDSIPKVDKKEDTAGVERSIQVFEEIGKLIGPKGVDKSRLFIMDSTYMADKNPLIERGAPYINLLLVQVYGSQGEKGGWEPVSNRPEKTMEERWQGYSKYIRPEQYMIGFSFYEENAQEGNLWYDINSRKDEDKANGINTDITGTRAERYARWQPKTGGVKGGIFSYAIDRDGVAHQPKKYAKQKEFKDATDNIFHSDYSVSKALKTVMLKDKSYDLIDEKDFPDKALREAVMAQVGTRKGDLERFNGTLRLDNPAIQSLEGLNKFKKLAQLDLIGLSRITKLDRSVLPANMKPGKDTLETVLETYKKDNKEEPATIPPVSLKVSGLTGLKELDLSGFDRETLAGLDAATLTSLEKVDISGNKLDLAPGTENRQIFDTMLSTISNHVGSNEQTVKFDKQKPTGHYPDTYGKTSLRLPVANEKVDLQSQLLFGTVTNQGTLINSEADYKAYQNHKIAGRSFVDSNYHYNNFKVSYENYTVKVTDSTLGTTTDKTLATDKEETYKVDFFSPADKTKAVHTAKVIVGDEKTMMVNLAEGATVIGGSADPVNARKVFDGQLGSETDNISLGWDSKQSIIFKLKEDGLIKHWRFFNDSARNPETTNKPIQEASLQIFNIKDYNLDNLLENPNKFDDEKYWITVDTYSAQGERATAFSNTLNNITSKYWRVVFDTKGDRYSSPVVPELQILGYPLPNADTIMKTVTTAKELSQQKDKFSQKMLDELKIKEMALETSLNSKIFDVTAINANAGVLKDCIEKRQLLKK
B1 showed a Kd [3] of 83 nM, a koff [3] of 0.0089 s⁻¹ and a kon [3] of 107000 M⁻¹ s⁻¹. For the same molecule, the Kd [4] was 140 nM, the koff [4] was 0.002 s⁻¹ and the kon [4] was 15000 M⁻¹ s⁻¹. For the same molecule, the Kd [5] was 210 nM, the koff [5] was 0.0025 s⁻¹ and the kon [5] was 12000 M⁻¹ s⁻¹. It also gave a Kd [6] of 420 nM, a koff [6] of 0.0176 s⁻¹ and a kon [6] of 42000 M⁻¹ s⁻¹.
